In PMC6391532:

Assays:
Test in all cases: SEC
[1] = target: dengue virus 2 capsid protein (DENV2C), wild type (dengue virus 2)
[2] = target: DENV2C L50S (dengue virus 2)
[3] = target: DENV2C L81N (dengue virus 2)
[4] = target: DENV2C I88N (dengue virus 2)
[5] = target: DENV2C L54S (dengue virus 2)

## dengue virus 2 capsid protein (DENV2C), wild type (natural protein)
[1]
  stoichiometry N: 2

## DENV2C L50S (natural protein)
[2]
  stoichiometry N: 2

## DENV2C L81N (natural protein)
[3]
  stoichiometry N: 2

## DENV2C I88N (natural protein)
[4]
  stoichiometry N: 2

## DENV2C L54S (natural protein)
[5]
  stoichiometry N: 2
